Measurements taken from the supplement of paper PMC10567573.

B1: YPEL3 (parent)
chain: SKPKTFQAYLDDCHRRYSCAHCRA

Variants of: B1
Test: protein stability index of a GFP-peptide fusion (GPS, HEK-293T) (PSI 1-6); higher = more stable
Settings: c terminus: a fixed tail appended
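Further: lentivirally expressed fusions sorted by FACS into six bins by GFP to DsRed ratio, PSI derived from sequencing read proportions per bin multiplied by bin number.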

Variant	protein stability index
SKPKGFQAYLDDCHRRYSCAHCRA [T5G]	2.11
SKPKEFQAYLDDCHRRYSCAHCRA [T5E]	3.37
SKPKMFQAYLDDCHRRYSCAHCRA [T5M]	2.56
SKPKNFQAYLDDCHRRYSCAHCRA [T5N]	2.53
SKPKVFQAYLDDCHRRYSCAHCRA [T5V]	2.05
SKPKDFQAYLDDCHRRYSCAHCRA [T5D]	2.94
SKPKHFQAYLDDCHRRYSCAHCRA [T5H]	2.57
SKPKAFQAYLDDCHRRYSCAHCRA [T5A]	2.46
SKPKIFQAYLDDCHRRYSCAHCRA [T5I]	2.75
SKPKLFQAYLDDCHRRYSCAHCRA [T5L]	2.37
SKPKKFQAYLDDCHRRYSCAHCRA [T5K]	2.25
SKPKSFQAYLDDCHRRYSCAHCRA [T5S]	1.77
SKPKQFQAYLDDCHRRYSCAHCRA [T5Q]	2.55
SKPKPFQAYLDDCHRRYSCAHCRA [T5P]	2.43
SKPKRFQAYLDDCHRRYSCAHCRA [T5R]	2.85
SKPKWFQAYLDDCHRRYSCAHCRA [T5W]	1.99
SKPKCFQAYLDDCHRRYSCAHCRA [T5C]	2.33
SKPKFFQAYLDDCHRRYSCAHCRA [T5F]	1.84
SKPKYFQAYLDDCHRRYSCAHCRA [T5Y]	1.97
SKPKTFCAYLDDCHRRYSCAHCRA [Q7C]	1.96
SKPKTFYAYLDDCHRRYSCAHCRA [Q7Y]	1.85
SKPKTFGAYLDDCHRRYSCAHCRA [Q7G]	2.22
SKPKTFWAYLDDCHRRYSCAHCRA [Q7W]	1.73
SKPKTFHAYLDDCHRRYSCAHCRA [Q7H]	2.2

Variant	protein stability index
SKPKTFDAYLDDCHRRYSCAHCRA [Q7D]	2.68
SKPKTFMAYLDDCHRRYSCAHCRA [Q7M]	1.8
SKPKTFAAYLDDCHRRYSCAHCRA [Q7A]	2.39
SKPKTFKAYLDDCHRRYSCAHCRA [Q7K]	2.65
SKPKTFNAYLDDCHRRYSCAHCRA [Q7N]	2.04
SKPKTFSAYLDDCHRRYSCAHCRA [Q7S]	1.89
SKPKTFVAYLDDCHRRYSCAHCRA [Q7V]	2.18
SKPKTFRAYLDDCHRRYSCAHCRA [Q7R]	2.02
SKPKTFTAYLDDCHRRYSCAHCRA [Q7T]	1.93
SKPKTFPAYLDDCHRRYSCAHCRA [Q7P]	2.8
SKPKTFLAYLDDCHRRYSCAHCRA [Q7L]	1.76
SKPKTFIAYLDDCHRRYSCAHCRA [Q7I]	1.4
SKPKTFEAYLDDCHRRYSCAHCRA [Q7E]	2.16
SKPKTFFAYLDDCHRRYSCAHCRA [Q7F]	3.06
SKPKTFQDYLDDCHRRYSCAHCRA [A8D]	1.54
SKPKTFQGYLDDCHRRYSCAHCRA [A8G]	1.91
SKPKTFQEYLDDCHRRYSCAHCRA [A8E]	1.92
SKPKTFQCYLDDCHRRYSCAHCRA [A8C]	2.32
SKPKTFQFYLDDCHRRYSCAHCRA [A8F]	1.78
SKPKTMQAYLDDCHRRYSCAHCRA [F6M]	2.94
SKPKTRQAYLDDCHRRYSCAHCRA [F6R]	3.21
SKPKTPQAYLDDCHRRYSCAHCRA [F6P]	2.96
SKPKTYQAYLDDCHRRYSCAHCRA [F6Y]	2.2
SKPKTKQAYLDDCHRRYSCAHCRA [F6K]	3.23

Variant	protein stability index
SKPKTWQAYLDDCHRRYSCAHCRA [F6W]	2.44
SKPKTDQAYLDDCHRRYSCAHCRA [F6D]	3.54
SKPKTEQAYLDDCHRRYSCAHCRA [F6E]	3.4
SKPKTTQAYLDDCHRRYSCAHCRA [F6T]	3.23
SKPKTHQAYLDDCHRRYSCAHCRA [F6H]	2.71
SKPKTVQAYLDDCHRRYSCAHCRA [F6V]	2.81
SKPKTSQAYLDDCHRRYSCAHCRA [F6S]	3.3
SKPKTQQAYLDDCHRRYSCAHCRA [F6Q]	3.21
SKPKTLQAYLDDCHRRYSCAHCRA [F6L]	2.27
SKPKTGQAYLDDCHRRYSCAHCRA [F6G]	3.57
SKPKTCQAYLDDCHRRYSCAHCRA [F6C]	2.84
SKPKTNQAYLDDCHRRYSCAHCRA [F6N]	3.15
SKPKTIQAYLDDCHRRYSCAHCRA [F6I]	2.17
SKPKTAQAYLDDCHRRYSCAHCRA [F6A]	2.95
SKHKTFQAYLDDCHRRYSCAHCRA [P3H]	1.54
SKSKTFQAYLDDCHRRYSCAHCRA [P3S]	1.82
SKVKTFQAYLDDCHRRYSCAHCRA [P3V]	2
SKNKTFQAYLDDCHRRYSCAHCRA [P3N]	2.26
SKLKTFQAYLDDCHRRYSCAHCRA [P3L]	2.13
SKMKTFQAYLDDCHRRYSCAHCRA [P3M]	3.01
SKQKTFQAYLDDCHRRYSCAHCRA [P3Q]	1.97
SKRKTFQAYLDDCHRRYSCAHCRA [P3R]	2.05
SKTKTFQAYLDDCHRRYSCAHCRA [P3T]	1.92
SKWKTFQAYLDDCHRRYSCAHCRA [P3W]	1.8

Variant	protein stability index
SKKKTFQAYLDDCHRRYSCAHCRA [P3K]	2.29
SKYKTFQAYLDDCHRRYSCAHCRA [P3Y]	1.72
SKIKTFQAYLDDCHRRYSCAHCRA [P3I]	2.19
SKPETFQAYLDDCHRRYSCAHCRA [K4E]	2.09
SKPITFQAYLDDCHRRYSCAHCRA [K4I]	1.6
SKPPTFQAYLDDCHRRYSCAHCRA [K4P]	1.9
SKPCTFQAYLDDCHRRYSCAHCRA [K4C]	1.86
SKPRTFQAYLDDCHRRYSCAHCRA [K4R]	1.86
SKPATFQAYLDDCHRRYSCAHCRA [K4A]	2.47
SKPFTFQAYLDDCHRRYSCAHCRA [K4F]	1.72
SKPHTFQAYLDDCHRRYSCAHCRA [K4H]	2.59
SKPLTFQAYLDDCHRRYSCAHCRA [K4L]	2.42
SKPYTFQAYLDDCHRRYSCAHCRA [K4Y]	2.04
SKPNTFQAYLDDCHRRYSCAHCRA [K4N]	1.87
SKPTTFQAYLDDCHRRYSCAHCRA [K4T]	1.74
SKPQTFQAYLDDCHRRYSCAHCRA [K4Q]	1.8
SKPGTFQAYLDDCHRRYSCAHCRA [K4G]	2.71
SKPVTFQAYLDDCHRRYSCAHCRA [K4V]	2.57
SKPDTFQAYLDDCHRRYSCAHCRA [K4D]	1.86
SKPSTFQAYLDDCHRRYSCAHCRA [K4S]	2.5
SKPMTFQAYLDDCHRRYSCAHCRA [K4M]	2.28
SKPWTFQAYLDDCHRRYSCAHCRA [K4W]	1.59
